According to patent US20050080013A1 (Pfizer, published 2005):
Non-standard residues stand in square brackets, D forms with d. Primed or numbered codes have the meaning given here. No end group written: not given here. Orn = NCCC[C@H](N)C(=O)O; Nal″ = naphthylalanine; Aib = CC(C)(N)C(=O)O

T1: lecithin:cholesterol acyltransferase (LCAT), purified from human plasma (human, UniProt P04180 25-440)
T1 sequence (looked up): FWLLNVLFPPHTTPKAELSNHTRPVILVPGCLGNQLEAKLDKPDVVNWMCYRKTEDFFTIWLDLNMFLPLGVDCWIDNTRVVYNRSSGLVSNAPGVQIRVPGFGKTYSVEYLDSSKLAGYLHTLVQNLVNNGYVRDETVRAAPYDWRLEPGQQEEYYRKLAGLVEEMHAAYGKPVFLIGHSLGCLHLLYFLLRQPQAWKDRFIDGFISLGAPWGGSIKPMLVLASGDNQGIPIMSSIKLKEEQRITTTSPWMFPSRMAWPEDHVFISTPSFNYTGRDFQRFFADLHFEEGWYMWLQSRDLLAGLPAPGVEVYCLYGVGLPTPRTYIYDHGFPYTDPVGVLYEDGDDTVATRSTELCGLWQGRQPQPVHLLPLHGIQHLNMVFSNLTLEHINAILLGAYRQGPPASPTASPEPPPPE


biological target: T1, lecithin:cholesterol acyltransferase …; assay: cell-based or functional assay

Row | Binder | ACTIVITY (%) LCAT
1 | PVLDLFRELLNELLE[Nal″]LKQKLK [peptide 1] | 120%
2 | PVLDLFRELLNELLEA[Nal″]KQKLK [peptide 10] | 79%
3 | PVLDEFRELLNEELEALKQKLK [peptide 103] | 1%
4 | PLLNELLEALKQKLK [peptide 104] | 1%
5 | PAADAFREAANEAAEAAKQKAK [peptide 105] | 1%
6 | PVLDLFREKLNEELEALKQKLK [peptide 106] | 0%
7 | KLKQKLAELLENLLERFLDLVP (all D-amino acids (lower case)) [peptide 107] | 0%
8 | PVLDLFRWLLNE[Aib]LEALKQKLK [peptide 108] | 0%
9 | PVLDEFREKLNERLEALKQKLK [peptide 109] | 0%
10 | PVLDEFREKLNE[Aib][Aib]EALKQKLK [peptide 110] | 0%
11 | PVLDEFREKLWE[Aib]WEALKQKLK [peptide 111] | 0%
12 | PVLDEFREKLNE[Aib]SEALKQKLK [peptide 112] | 0%
13 | PVLDLFKELLQELLEALKQKLK [peptide 11] | 72%
14 | PVLDEFREKLNEPLEALKQKLK [peptide 113] | 0%
15 | PVLDEFREKLNE[Aib]MEALKQKLK [peptide 114] | 0%
16 | PKLDEFREKLNE[Aib]LEALKQKLK [peptide 115] | 0%
17 | PHLDEFREKLNE[Aib]LEALKQKLK [peptide 116] | 0%
18 | PELDEFREKLNE[Aib]LEALKQKLK [peptide 117] | 0%
19 | PVLDEFREKLNE[Aib]LEALEQKLK [peptide 118] | 0%
20 | PVLDEFREKLNEELEA[Aib]KQKLK [peptide 119] | 0%
21 | PVLDEFREKLNEELE[Aib]LKQKLK [peptide 120] | 0%

Row | Binder | ACTIVITY (%) LCAT
22 | PVLDEFREKLNEELEALWQKLK [peptide 121] | 0%
23 | PVLDEFREKLNEELEWLKQKLK [peptide 122] | 0%
24 | PVLDLFRELLNELLEAGKQKLK [peptide 12] | 70%
25 | PVLDLFRELLNELLELLKQKLK [peptide 127] | 47%
26 | [dP]VLELFENLLERLLDALQKKLK [peptide 144] | 111%
27 | GVLELFENLLERLLDALQKKLK [peptide 145] | 100%
28 | PVLELFENLLERLLDALQKKLK [peptide 146] | 86%
29 | PVLELFENLLERLFDALQKKLK [peptide 147] | 76%
30 | PVLELFENLLERLGDALQKKLK [peptide 148] | 75%
31 | PVLELFENLWERLLDALQKKLK [peptide 149] | 63%
32 | PLLELFENLLERLLDALQKKLK [peptide 150] | 57%
33 | PVLELFENLGERLLDALQKKLK [peptide 151] | 55%
34 | PVFELFENLLERLLDALQKKLK [peptide 152] | 50%
35 | GVLDLFRELLNEGLEALKQKLK [peptide 13] | 67%
36 | AVLELFENLLERLLDALQKKLK [peptide 153] | 49%
37 | PVLELFENLLERGLDALQKKLK [peptide 154] | 39%
38 | PVLELFLNLWERLLDALQKKLK [peptide 155] | 38%
39 | PVLELFLNLLERLLDALQKKLK [peptide 156] | 35%
40 | PVLEFFENLLERLLDALQKKLK [peptide 157] | 30%
41 | PVLELFLNLLERLLDWLQKKLK [peptide 158] | 30%
42 | PVLDLFENLLERLLDALQKKLK [peptide 159] | 28%

Row | Binder | ACTIVITY (%) LCAT
43 | PVLELFENLLERLLDWLQKKLK [peptide 160] | 28%
44 | PVLELFENLLERLLEALQKKLK [peptide 161] | 27%
45 | PVLELFENWLERLLDALQKKLK [peptide 162] | 27%
46 | PVLDLFRELLNELLEALXQXLX (Orn (O) at 18, 20, 22) [peptide 14] | 61%
47 | PVLELFENLLERLWDALQKKLK [peptide 163] | 26%
48 | PVLELFENLLERLLDAWQKKLK [peptide 164] | 24%
49 | PVLELFENLLERLLDLLQKKLK [peptide 165] | 23%
50 | PVLELFLNLLEKLLDALQKKLK [peptide 166] | 22%
51 | PVLELFENGLERLLDALQKKLK [peptide 167] | 18%
52 | PVLELFEQLLEKLLDALQKKLK [peptide 168] | 17%
53 | PVLELFENLLEKLLDALQKKLK [peptide 169] | 17%
54 | PVLELFENLLE[Orn]LLDALQ[Orn][Orn]L[Orn] [peptide 170] | 17%
55 | PVLELFENLLEKLLDLLQKKLK [peptide 171] | 16%
56 | PVLELFLNLLERLGDALQKKLK [peptide 172] | 16%
57 | PVLDLFRELWNELLEALKQKLK [peptide 15] | 60%
58 | PVLDLFDNLLDRLLDLLNKKLK [peptide 173] | 15%
59 | [dP][dV][dL][dE][dL][dF][dE][dN][dL][dL][dE][dR][dL][dL][dD][dA][dL][dQ][dK][dK][dL][dK] [peptide 174] | 13%
60 | PVLELFENLLERLLELLNKKLK [peptide 175] | 13%
61 | PVLELWENLLERLLDALQKKLK [peptide 176] | 11%
